# IntAct's records for PubMed 17699754
# B1: DnaA initiator-associating protein DiaA (Escherichia coli (strain K12)), P66817 (parent)
# chain: MQERIKACFTESIQTQIAAAEALPDAISRAAMTLVQSLLNGNKILCCGNGTSAANAQHFAASMINRFETERPSLPAIALNTDNVVLTAIANDRLHDEVYAKQVRALGHAGDVLLAISTRGNSRDIVKAVEAAVTRDMTIVALTGYDGGELAGLLGPQDVEIRIPSHRSARIQEMHMLTVNCLCDLIDNTLFPHQDD
# partner: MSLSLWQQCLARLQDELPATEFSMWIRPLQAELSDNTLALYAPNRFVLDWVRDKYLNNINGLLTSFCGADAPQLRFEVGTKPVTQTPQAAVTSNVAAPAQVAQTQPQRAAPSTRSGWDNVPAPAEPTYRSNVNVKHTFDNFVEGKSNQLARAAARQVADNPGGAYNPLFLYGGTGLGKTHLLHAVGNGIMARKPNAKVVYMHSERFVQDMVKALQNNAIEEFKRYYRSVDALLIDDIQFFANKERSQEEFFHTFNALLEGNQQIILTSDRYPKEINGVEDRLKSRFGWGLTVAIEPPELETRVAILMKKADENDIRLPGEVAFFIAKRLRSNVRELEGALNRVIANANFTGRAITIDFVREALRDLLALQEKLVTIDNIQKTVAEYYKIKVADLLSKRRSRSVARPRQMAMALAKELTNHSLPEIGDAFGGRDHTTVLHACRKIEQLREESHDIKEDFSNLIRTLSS
# Variants of: B1
# Settings: with dnaa_ecoli dnaA
row,Variant,effect of a mutation on the interaction
1,MQERIKACFTESIQTQIAAAEALPDAISRAAMTLVQSLLNGNKILCCGNGTSAANAQHFAASMINRFETERASLPAIALNTDNVVLTAIANDRLHDEVYAKQVRALGHAGDVLLAISTRGNSRDIVKAVEAAVTRDMTIVALTGYDGGELAGLLGPQDVEIRIPSHRSARIQEMHMLTVNCLCDLIDNTLFPHQDD [P72A],decreasing interaction
2,MQERIKACFTESIQTQIAAAEALPDAISRAAMTLVQSLLNGNKILCCGNGTSAANAQHFAASMINRFETERSSLPAIALNTDNVVLTAIANDRLHDEVYAKQVRALGHAGDVLLAISTRGNSRDIVKAVEAAVTRDMTIVALTGYDGGELAGLLGPQDVEIRIPSHRSARIQEMHMLTVNCLCDLIDNTLFPHQDD [P72S],decreasing interaction
3,MQERIKACFTESIQTQIAAAEALPDAISRAAMTLVQSLLNGNKILCCGNGTSAANAQHFAASMINRFETERPSLPAIALNTDDVVLTAIANDRLHDEVYAKQVRALGHAGDVLLAISTRGNSRDIVKAVEAAVTRDMTIVALTGYDGGELAGLLGPQDVEIRIPSHRSARIQEMHMLTVNCLCDLIDNTLFPHQDD [N83D],decreasing interaction

# Second part, the variant after the results:
row,effect of a mutation on the interaction,Variant
1,decreasing interaction,MQERIKACFTESIQTQIAAAEALPDAISRAAMTLVQSLLNGNKILCCGNGTSAANAQHFAASMINRFETERPSLPAIALNTDNVVLTAIANDRLHDEVYAEQVRALGHAGDVLLAISTRGNSRDIVKAVEAAVTRDMTIVALTGYDGGELAGLLGPQDVEIRIPSHRSARIQEMHMLTVNCLCDLIDNTLFPHQDD [K101E]
2,disrupting interaction,MQERIKACFTESIQTQIAAAEALPDAISRAAMTLVQSLLNGNKILCCGNGTSAANAQHFAASMINRFETERPSLPAIALNTDNVVLTAIANDRLHDEVYAKQVRALGHAGDVLLAISTRGNSRDIVKAVEAAVTRDMTIVALTGYDGGELAGLLGPQDVEIRIPSHRSARIQEMHMLTVNCLCDLIDNTAFPHQDD [L190A]
3,disrupting interaction,MQERIKACFTESIQTQIAAAEALPDAISRAAMTLVQSLLNGNKILCCGNGTSAANAQHFAASMINRFETERPSLPAIALNTDNVVLTAIANDRLHDEVYAKQVRALGHAGDVLLAISTRGNSRDIVKAVEAAVTRDMTIVALTGYDGGELAGLLGPQDVEIRIPSHRSARIQEMHMLTVNCLCDLIDNTPFPHQDD [L190P]
4,disrupting interaction,MQERIKACFTESIQTQIAAAEALPDAISRAAMTLVQSLLNGNKILCCGNGTSAANAQHFAASMINRFETERPSLPAIALNTDNVVLTAIANDRLHDEVYAKQVRALGHAGDVLLAISTRGNSRDIVKAVEAAVTRDMTIVALTGYDGGELAGLLGPQDVEIRIPSHRSARIQEMHMLTVNCLCDLIDNTLSPHQDD [F191S]
5,disrupting interaction,MQERIKACFTESIQTQIAAAEALPDAISRAAMTLVQSLLNGNKILCCGNGTSAANAQHFAASMINRFETERPSLPAIALNTDNVVLTAIANDRLHDEVYAKQVRALGHAGDVLLAISTRGNSRDIVKAVEAAVTRDMTIVALTGYDGGELAGLLGPQDVEIRIPSHRSARIQEMHMLTVNCLCDLIDNTLLPHQDD [F191L]

# Variants of: B1
# Settings: with dnaa_ecoli dnaA
# Remark: another data set of the same source
row,Variant,effect of a mutation on the interaction
1,MQERIKACFTESIQTQIAAAEALPDAISRAAMTLVQSLLNGNKILCCGNGTFAANAQHFAASMINRFETERPSLPAIALNTDNVVLTAIANDRLHDEVYAKQVRALGHAGDVLLAISTRGNSRDIVKAVEAAVTRDMTIVALTGYDGGELAGLLGPQDVEIRIPSHRSARIQEMHMLTVNCLCDLIDNTLFPHQDD [S52F],decreasing interaction
